# In the supplement of paper PMC10567573:
# B1: ZNF511 (parent)
# chain: EPLPVERDPAAGAAPFRFVARPVR
# Variants of: B1
# Assay: protein stability index of a GFP-peptide fusion (GPS, HEK-293T) (PSI 1-6); higher = more stable
# Settings: c terminus: a fixed tail appended
# 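Also: lentivirally expressed fusions sorted by FACS into six bins by GFP to DsRed ratio, PSI derived from sequencing read proportions per bin multiplied by bin number.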
row,Variant,protein stability index
1,EPLPVERDPAAGNAPFRFVARPVR,2.58
2,EPLPVERDPAAGSAPFRFVARPVR,3.04
3,EPLPVERDPAAGDAPFRFVARPVR,3.26
4,EPLPVERDPAAGCAPFRFVARPVR,2
5,EPLPVERDPAAGQAPFRFVARPVR,2.6
6,QPLPVERDPAAGAAPFRFVARPVR,2.9
7,RPLPVERDPAAGAAPFRFVARPVR,2.39
8,EPLPVEGDPAAGAAPFRFVARPVR,2.1
9,EPLPVEDDPAAGAAPFRFVARPVR,2.9
10,EPLPVEIDPAAGAAPFRFVARPVR,2.91
11,EPLPVERDPAAGAAPFRFVARPCR,3.19
12,EPLPVERDPAAGAAPFRFVARPLR,2.73
13,EPLPVERDPAAGAAPFRFVARPFR,2.48
14,EPLPVSRDPAAGAAPFRFVARPVR,1.96
15,EPLPVRRDPAAGAAPFRFVARPVR,3.13
16,EPLPVCRDPAAGAAPFRFVARPVR,3.25
17,EPLPVHRDPAAGAAPFRFVARPVR,2.44
18,EPLPVMRDPAAGAAPFRFVARPVR,2.52
19,EPLDVERDPAAGAAPFRFVARPVR,2.9
20,EPLIVERDPAAGAAPFRFVARPVR,2.9
21,EPLCVERDPAAGAAPFRFVARPVR,1.91
22,EPLLVERDPAAGAAPFRFVARPVR,2.27
23,EPLVVERDPAAGAAPFRFVARPVR,2.49
24,EPLKVERDPAAGAAPFRFVARPVR,2.09

row,Variant,protein stability index
1,EPLPVERGPAAGAAPFRFVARPVR,1.91
2,EPLPVERVPAAGAAPFRFVARPVR,2.4
3,EPLPVERSPAAGAAPFRFVARPVR,2.36
4,EPLPVERYPAAGAAPFRFVARPVR,2.63
5,EPLPVERWPAAGAAPFRFVARPVR,1.91
6,EPLPVERDPAAGAAPFSFVARPVR,3.87
7,EPLPVERDPAAGASPFRFVARPVR,3.27
8,EHLPVERDPAAGAAPFRFVARPVR,2.12
9,ENLPVERDPAAGAAPFRFVARPVR,1.99
10,EKLPVERDPAAGAAPFRFVARPVR,2.06
11,ECLPVERDPAAGAAPFRFVARPVR,2.08
12,EPLPVERDPAAGAAPFRFVACPVR,1.7
13,EPLPVERDPAAGAAPFRFVAPPVR,3.54
14,EPLPVERDPAAGAAPFRFVATPVR,2.57
15,EPLPVERDPAAGAAPFRFVALPVR,2.07
16,EPLPVERDPAAGAAPFRFVAGPVR,2.03
17,EPLPVERDPAAGAAPFRTVARPVR,4.86
18,EPLPVERDPAAGAAPFRVVARPVR,4.6
19,EPLPVERDPAAGAAPFRPVARPVR,5.01
20,EPLPVERDPAAGAAPFREVARPVR,5.37
21,EPLPVERDPAAGAAPFRGVARPVR,5.14
22,EPLPVERDPAAGAAPFRSVARPVR,5.18
23,EPLPVERDPAAGAAPFRCVARPVR,4.59
24,EPLPVERDVAAGAAPFRFVARPVR,1.92

row,Variant,protein stability index
1,EPLPVERDGAAGAAPFRFVARPVR,1.96
2,EPLPVERDYAAGAAPFRFVARPVR,2.12
3,EPCPVERDPAAGAAPFRFVARPVR,2.16
4,EPNPVERDPAAGAAPFRFVARPVR,2.76
5,EPHPVERDPAAGAAPFRFVARPVR,2.56
6,EPRPVERDPAAGAAPFRFVARPVR,3.45
7,EPMPVERDPAAGAAPFRFVARPVR,2.28
8,EPDPVERDPAAGAAPFRFVARPVR,2.1
9,EPLPVERDPAAGAAPFRFHARPVR,1.62
10,EPLPVERDPAAGAAPFRFGARPVR,5.14
11,EPLPVERDPAAGAAPFRFQARPVR,2.99
12,EPLPVERDPAAGAAPFRFDARPVR,4.67
13,EPLPVERDPAEGAAPFRFVARPVR,3
14,EPLPVERDPAHGAAPFRFVARPVR,2.61
15,EPLPVERDPAAGAAGFRFVARPVR,3.84
16,EPLPVERDPAAGAALFRFVARPVR,3.68
17,EPLPSERDPAAGAAPFRFVARPVR,2.56
18,EPLPIERDPAAGAAPFRFVARPVR,2.46
19,EPLPHERDPAAGAAPFRFVARPVR,1.96
20,EPLPWERDPAAGAAPFRFVARPVR,2.64
21,EPLPEERDPAAGAAPFRFVARPVR,2.17
22,EPLPVERDPAANAAPFRFVARPVR,2.27
23,EPLPVERDPAACAAPFRFVARPVR,2.79
24,EPLPVERDPAAFAAPFRFVARPVR,2.01

row,Variant,protein stability index
1,EPLPVERDPAAVAAPFRFVARPVR,1.92
2,EPLPVERDPAAMAAPFRFVARPVR,2.38
3,EPLPVERDPAAPAAPFRFVARPVR,1.76
4,EPLPVERDPAAGAAPGRFVARPVR,5.43
5,EPLPVERDPAAGAAPERFVARPVR,5.25
6,EPLPVERDPAAGAAPYRFVARPVR,3.82
7,EPLPVERDPAAGAAPDRFVARPVR,5.52
8,EPLPVERDPAAGAAPARFVARPVR,4.67
9,EPLPVERDPAAGAAPPRFVARPVR,5.26
10,EPLPVERDPAAGAAPQRFVARPVR,5.34
11,EPLPVERDPAAGAAPHRFVARPVR,4.75
12,EPLPVERDPAAGAAPFRFVARAVR,2.64
13,EPLPVERDPAAGAAPFRFVARWVR,2.66
14,EPLPVERDPAAGAAPFRFVARKVR,2.22
15,EPLPVERDPAAGAAPFRFVARPVL,1.62
16,EPLPVERDPAAGAAPFRFVARPVG,1.89
17,EPLPVERDPAAGAAPFRFVARPVT,1.97
18,EPLPVERDPAAGAAPFRFVNRPVR,2.61
19,EPLPVERDPAAGAAPFRFVGRPVR,2.04
20,EPLPVERDPAAGAAPFRFVRRPVR,1.67
21,EPLPVERDPAAGAAPFRFVVRPVR,2.46
22,EPLPVERDPAAGAAPFRFVSRPVR,2.05
